Laboratory results: the nanobody polyreactivity screen of Harvey et al. (2022)

Experiment: yeast display, Sf9 membrane polyspecificity reagent, FACS + sequencing; frameworks hold sequencing errors
Outline: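 After 36–48 hours of galactose induction, yeast (Saccharomyces cerevisiae BJ5465) displaying a synthetic nanobody library were stained at 4 °C for 1 hour with 10% biotinylated, detergent-solubilized Sf9 membrane reagent. Streptavidin microbeads enriched the stained cells before FACS sorting into low and high (top ~1%) gates on anti-HA and streptavidin fluorescence. Each clone's polyreactivity label reflects its gate of origin.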

Sequence	polyreactivity (PSR sort gate)
QVQLVESGGGLVQAGGSLRLSCAASGRISSGYAMGWYRKAPGKERELVAAISSIGGRTYYADSVKGRFTISRDNANNTVYLQMNSLKPEDTAVYYCNAGTYRRIGGYDYWGQGTQVTVSS	high polyreactivity
QVQLVESGGGLVQAGGRLRLSCAASGRIFYLNAMGWYRQAPGKERELVAAINTSGDSSYYADSVKGRFTISRDNAKNTVYLQMNSLKPEDTAVYYCAAYVIGPDQFIYDYWGQGTQVTVSS	low polyreactivity
QVQLVESGGGLVQAGGSLRLSCAASGLTFWGYAMGWYRQAPGKEREFVASISSGGGSTYYADSVKGRFTISRDNAKNTVYLQMNSLKPEDTAVYYCNVDVHLYLYKSYTYRYYYWGQGTQVTVSS	low polyreactivity
QVQLVESGGGLVQAGGTLRLSCADSGSTFAGNGMGWYRQAPGKERQLVAGIDVTGGSTYYADSVKGRFTISRDNAKNTVYLQMNSLKPEDTAVYYCAARVVRYGYKYYYWGQGTQVTVSS	low polyreactivity
QVQHVESGGGLVQAGGSLRLSCAASGSIFASYAMGWYRLAAGKERELVAAISRRAVLTYYADSVKGRFTISRDNPKNTVYLQMNSLKPEDTAVYFCNARGYSGYQRYGYNYWGQGTQVTVSS	high polyreactivity
QVQLVESGGCLVQAGGSLRLSCAASGRIFTYYGMGWYRQAPGKERELVAAITRSGGSTRYADSVKGRFTISRDNSKNTVYLQMNSLKPEDTAVYYCNAGGYWRYDYWGQGTQVTVSS	low polyreactivity
QVQLVESGGGLVQAGGSLRLSCAASGRIFDYYAMGSYRQAPGNERELVDAISSGDNTYYADSVKGRFTISRDNAKNTVYLQMNSLKPEDTAVYYCAADVSRFGYYGIGFYYWRQGTQVTVSS	low polyreactivity
QFQLVESGGGLVQAGGSLRLSCAASGINFGRNTMGMYRQAPGKERELVAAIDSGGNTYADSVKGRFTISRDNAKNTVYLQMNSLKPEDTAVYFCAVDGGEFSSYGYWGQGTQVTVSS	low polyreactivity
QVQLVESGGGLVQAGGSLRLSCAASGRIFGSYAMGWYRQAPWKERELVAAINWRGGSTFYADSVKGRFTISRDNAKNTVYLLMNSLKPEDTAVYYCARSGYRQSGDYWGQGTQVTVSS	low polyreactivity
QVQLVESGGGLVQAGGSLRLSCAASGFIFYINAMVWYRQAPGKERELVAAITNVGSTNYADSVKGRFTISRDNAKNTVYLQMNSLKPEDTAVYYCAAEKGLVALVYKYDYWGQGTQVTVSS	low polyreactivity
QVQLVESGRGLVQAGGSLRLICAASGNIFWYNAMGWYRQAPGKERELVAAINWSGGSTYYADSVKGRFRISRDNAKNTVYLEMNSLKPEDTAVYYCYAEWYDGDALQWVEYWGQGTQVTVSS	high polyreactivity
QVQLVESGGGLVQAGGSLRLSCAASGIIFYYYAMGWYRQAPGKERELVAAISWSGGSTYYADSVKGRFTISRDNAKNTVYLQMNSLKPEDTAVYYCAAAFSPGWWSRHTYDYDYWGQGTQVTVSS	high polyreactivity
QVQLVESGGGLVQAGGSLRLSCAASGFIFERYTMGWYRQAPGKERELVAAISDSGGSTYYADSVKGRFTISRDNAKNTVYLQMNSLKPEDTAVYYCATTQYTTYGRRYYWGQGTQVTVSS	high polyreactivity
QVQLVESGGGLVQAGGSLRLSCAASGFTFPDYAMGWYRQAPGKERELVAAISSDCSTYYADSVKGRFTISRDNAKNTVYLQMNSLKPEDTAVYYCAAYVVWLYGYDYWGQGTQVTVSS	low polyreactivity
QVQLVESGGGLVQAGGSLRVSCAASGRIFILNTMGCYRQAPGKETELVAGISYSGSTYYADSVKGRFTISRDNAKNTVYLQMNSLKPEATAVYYCAAEYDAAWYNEGYYYWGQGTQVTVSS	low polyreactivity
QVQLVESGGGLVQAGGSLRLSCAASGNTFPYYAMGWYRQAPGKEREYVATIDRGDGSTYYADSVKGRFTISRDNAKNTVYLQMNSVKPEDTAVYYCAKLRGAFIVPGRGYPIYYYWGQGTQVTVSS	high polyreactivity
QVQLVESGGGLVQAGGSLRLSCAASGRIFYYYVMGWYRQAPGKERELVATITKRGGDTYYADSVKGRFTISRDNAKNTVYLQMNSLKPEDTAVYYCAAVYLYYSRSDLYDYWGQGTQVTVSS	low polyreactivity
